Assay results: US20180155451A1 (published 2018)

B1: GpH7-A5/GpH7-B3 variant A330_08L/GpL16-k0 (antibody, human IgG1, kappa)
heavy 1: not shown
heavy 2: not shown
light: DIVMTQSPLSLPVTPGEPASISCQASESLVHSNRNTYLHWYLQKPGQSPQLLIYKVSNRFSGVPDRFSGSGSGTDFTLKISRVEAEDVGVYYCSQNTHVPPTFGQGTKVEIERTVAAPSVFIFPPSDEQLKSGTASVVCLLNNFYPREAKVQWKVDNALQSGNSQESVTEQDSKDSTYSLSSTLTLSKADYEKHKVYACEVTHQGLSSPVTKSFNRGEC
notes: He Ab: alteration in one H chain only; also called He Ab
B2: GpH7-A5/GpH7-B3 variant (S267_18N)/GpL16-k0 (antibody, human IgG1, kappa)
heavy 1: not shown
heavy 2: not shown
light: B1 light
notes: IgG1 heterodimer, mutation in the GpH7-B3 chain only; also called He Ab
B3: GpH7-A5/GpH7-B3 variant (L234_14T)/GpL16-k0 (antibody, human IgG1, kappa)
heavy 1: not shown
heavy 2: not shown
light: B1 light
notes: as for B2
B4: GpH7-A5/GpH7-B3 variant A330_16H/GpL16-k0 (antibody, human IgG1, kappa)
heavy 1: not shown
heavy 2: not shown
light: B1 light
notes: as for B1
B5: GpH7-A5/GpH7-B3 variant (L234_19Q)/GpL16-k0 (antibody, human IgG1, kappa)
heavy 1: not shown
heavy 2: not shown
light: B1 light
notes: as for B2
B6: GpH7-A5/GpH7-B3 variant (L235_18N)/GpL16-k0 (antibody, human IgG1, kappa)
heavy 1: not shown
heavy 2: not shown
light: B1 light
notes: as for B2
B7: GpH7-A5/GpH7-B3 variant (L235_05P)/GpL16-k0 (antibody, human IgG1, kappa)
heavy 1: not shown
heavy 2: not shown
light: B1 light
notes: as for B2
B8: GpH7-A5/GpH7-B3 variant (P271_04F)/GpL16-k0 (antibody, human IgG1, kappa)
heavy 1: not shown
heavy 2: not shown
light: B1 light
notes: as for B2
B9: GpH7-A5/GpH7-B3 variant (L234_06M)/GpL16-k0 (antibody, human IgG1, kappa)
heavy 1: not shown
heavy 2: not shown
light: B1 light
notes: as for B2
B10: GpH7-A5/GpH7-B3 variant A330_15Y/GpL16-k0 (antibody, human IgG1, kappa)
heavy 1: not shown
heavy 2: not shown
light: B1 light
notes: as for B1
B11: GpH7-A5/GpH7-B3 variant D270_10E/GpL16-k0 (antibody, human IgG1, kappa)
heavy 1: not shown
heavy 2: not shown
light: B1 light
notes: as for B1
B12: GpH7-A5/GpH7-B3 variant A330_03V/GpL16-k0 (antibody, human IgG1, kappa)
heavy 1: not shown
heavy 2: not shown
light: B1 light
notes: as for B1
B13: GpH7-A5/GpH7-B3 variant (L234_12R)/GpL16-k0 (antibody, human IgG1, kappa)
heavy 1: not shown
heavy 2: not shown
light: B1 light
notes: as for B2
B14: GpH7-A5/GpH7-B3 variant (L235_01G)/GpL16-k0 (antibody, human IgG1, kappa)
heavy 1: not shown
heavy 2: not shown
light: B1 light
notes: as for B2
B15: GpH7-A5/GpH7-B3 variant (L234_07I)/GpL16-k0 (antibody, human IgG1, kappa)
heavy 1: not shown
heavy 2: not shown
light: B1 light
notes: as for B2
B16: GpH7-A5/GpH7-B3 variant E333_04F/GpL16-k0 (antibody, human IgG1, kappa)
heavy 1: not shown
heavy 2: not shown
light: B1 light
notes: as for B1
B17: GpH7-A5/GpH7-B3 variant (L234_04F)/GpL16-k0 (antibody, human IgG1, kappa)
heavy 1: not shown
heavy 2: not shown
light: B1 light
notes: as for B2
B18: GpH7-A5/GpH7-B3 variant (L234_02A)/GpL16-k0 (antibody, human IgG1, kappa)
heavy 1: not shown
heavy 2: not shown
light: B1 light
notes: as for B2
B19: GpH7-A5/GpH7-B3 variant (L234_03V)/GpL16-k0 (antibody, human IgG1, kappa)
heavy 1: not shown
heavy 2: not shown
light: B1 light
notes: as for B2
B20: GpH7-A5/GpH7-B3 variant (P271_03V)/GpL16-k0 (antibody, human IgG1, kappa)
heavy 1: not shown
heavy 2: not shown
light: B1 light
notes: as for B2
B21: GpH7-A5/GpH7-B3 variant (S239_19Q)/GpL16-k0 (antibody, human IgG1, kappa)
heavy 1: not shown
heavy 2: not shown
light: B1 light
notes: as for B2
B22: GpH7-A5/GpH7-B3 variant (L235_19Q)/GpL16-k0 (antibody, human IgG1, kappa)
heavy 1: not shown
heavy 2: not shown
light: B1 light
notes: as for B2

Columns and labels:
[1] = target: T1, FcγRIIb extracellular domain with C-terminal His tag (human, UniProt P31994 43-217); assay: SPR, relative to GpH7-A5/GpH7-B3/GpL16-k0
T1 construct: extracellular domain; also called 2b; FcgRIIb
T1 sequence (looked up): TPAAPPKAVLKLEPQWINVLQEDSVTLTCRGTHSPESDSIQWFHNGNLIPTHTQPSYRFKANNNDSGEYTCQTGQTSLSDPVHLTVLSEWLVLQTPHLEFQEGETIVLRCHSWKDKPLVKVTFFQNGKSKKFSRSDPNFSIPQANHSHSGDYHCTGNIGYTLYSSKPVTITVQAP
Experimental: (§1) The heterodimerized antibodies He Abs in which one of the H chains was introduced with an alteration were assayed for their binding activities to each activating FcγR and inhibitory FcγR according to the method described in Example 4. […] The activating FcγRs in FIGS. 26, 27, 28, and 29 are FcγRIa, FcγRIIa (R), FcγRIIa (H), and FcγRIIIa, respectively.
(§2) Analysis of interaction between objective antibody and the FcγR was carried out using Biacore T100 (GE Healthcare). HBS-EP+ (GE Healthcare) was used as the running buffer, and the measurement temperature was set to 25° C. Chips produced by immobilizing the antigen peptide by the amine coupling method to a Series S Sencor Chip CM5 (GE Healthcare), or alternatively, chips produced by allowing preliminarily biotinylated antigen peptides to interact with and immobilize onto a Series S Sensor Chip SA (certified) (GE Healthcare) were used. Antibodies of interest were captured onto an antigen peptide-immobilized chip, and allowed to interact to each FcγR diluted with running buffer. To regenerate and repeatedly use the chip, the antibodies captured on the chip were washed off by reacting 10 mM glycine-HCl, pH 1.5.

[2] = target: T2, FcγRIIIa extracellular domain with C-terminal His tag (human, UniProt P08637 17-208); assay: SPR, relative to GpH7-A5/GpH7-B3/GpL16-k0
T2 construct: extracellular domain; also called 3a; FcgRIIIa
Experimental: as §1, §2

[3] = target: T3, FcγRIIb (human, UniProt P31994 43-217); assay: SPR, captured antibody; relative to GpH7-A5/GpH7-B3/GpL16-k0
T3 construct: extracellular domain; also called FcgRIIb; 2b
T3 sequence (looked up): T1 sequence (looked up)

[4] = target: T4, FcγRIa (human, UniProt P12314 16-292); assay: as above
T4 construct: extracellular domain; also called FcgRI; 1a
T4 sequence (P12314 16-292): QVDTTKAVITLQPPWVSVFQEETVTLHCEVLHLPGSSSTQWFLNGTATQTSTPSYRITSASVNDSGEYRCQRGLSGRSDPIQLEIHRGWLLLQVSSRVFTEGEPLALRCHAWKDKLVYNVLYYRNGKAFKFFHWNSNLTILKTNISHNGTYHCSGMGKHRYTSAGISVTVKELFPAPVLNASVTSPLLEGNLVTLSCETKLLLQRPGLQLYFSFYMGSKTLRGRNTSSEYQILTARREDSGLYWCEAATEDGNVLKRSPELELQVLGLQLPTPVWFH

T2 sequence (P08637 17-208): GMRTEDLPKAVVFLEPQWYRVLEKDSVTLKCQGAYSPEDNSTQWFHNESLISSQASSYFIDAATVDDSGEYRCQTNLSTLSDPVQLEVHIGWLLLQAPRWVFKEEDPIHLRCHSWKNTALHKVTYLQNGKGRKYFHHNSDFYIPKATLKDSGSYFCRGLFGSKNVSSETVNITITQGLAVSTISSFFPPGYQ

Binder | He/Con_2b [1] [control=100] | He/Con_3a [2] [control=100] | He/Con_2b [3] | He/Con_1a [4]
B1 | 70.5 | 124 |  | 
B2 |  |  | 47.7 relative, HeCon Ab = 100 | 102 relative, HeCon Ab = 100
B3 |  |  | 62.5 relative, HeCon Ab = 100 | 98.6 relative, HeCon Ab = 100
B4 | 87.6 | 104 |  | 
B5 |  |  | 60.3 relative, HeCon Ab = 100 | 95.7 relative, HeCon Ab = 100
B6 |  |  | 54.9 relative, HeCon Ab = 100 | 92.2 relative, HeCon Ab = 100
B7 |  |  | 54.7 relative, HeCon Ab = 100 | 94.7 relative, HeCon Ab = 100
B8 |  |  | 59.5 relative, HeCon Ab = 100 | 102 relative, HeCon Ab = 100
B9 |  |  | 78.5 relative, HeCon Ab = 100 | 104 relative, HeCon Ab = 100
B10 | 95 | 125 |  | 
B11 | 76.5 | 123 |  | 
B12 | 52.4 | 101 |  | 
B13 |  |  | 18.9 relative, HeCon Ab = 100 | 91.8 relative, HeCon Ab = 100
B14 |  |  | 35.4 relative, HeCon Ab = 100 | 87.2 relative, HeCon Ab = 100
B15 |  |  | 80.9 relative, HeCon Ab = 100 | 103 relative, HeCon Ab = 100
B16 | 94.6 | 101 |  | 
B17 |  |  | 99.8 relative, HeCon Ab = 100 | 101 relative, HeCon Ab = 100
B18 |  |  | 64.9 relative, HeCon Ab = 100 | 97.5 relative, HeCon Ab = 100
B19 |  |  | 73.1 relative, HeCon Ab = 100 | 104 relative, HeCon Ab = 100
B20 |  |  | 74.8 relative, HeCon Ab = 100 | 102 relative, HeCon Ab = 100
B21 |  |  | 86.1 relative, HeCon Ab = 100 | 101 relative, HeCon Ab = 100
B22 |  |  | 42.6 relative, HeCon Ab = 100 | 94 relative, HeCon Ab = 100
